According to patent US20070172423A1, “Composition and method for modulating vasculogenesis for angiogenesis” (priority 1998, published 2007):

Key:
PDGF beta receptors = PDGF beta receptors (Homo sapiens, UniProt P09619); experiment: Competition with 125I-PDGF-BB for binding to PAE-1 cells expressing PDGF beta-receptor; parameters: expressed in transfected cells; details: 5 ng/ml 125I-PDGF-BB tracer, on ice 90 minutes
Method: Next, full length and truncated PDGF-C were tested for their capacity to bind to human PDGF receptors alpha and beta by analyzing their abilities to compete with PDGF-BB for binding to PDGF receptors. The binding experiments were performed on porcine aortic endothelial-1 (PAE-1) cells stably expressing the human PDGF receptors alpha and beta (Eriksson et al., EMBO J, 1992, 11, 543-550). Binding experiments were performed essentially as in Heldin et al. (EMBO J, 1988, 7:1387-1393). Different concentrations of human full-length and truncated PDGF-C, or human PDGF-BB were mixed with 5 ng/ml of ^125I-PDGF-BB in binding buffer (PBS containing 1 mg/ml of bovine serum albumin). Aliquots were incubated with the receptor expressing PAE-1 cells plated in 24-well culture dishes on ice for 90 minutes. After three washes with binding buffer, cell-bound 125]-PDGF-BB was extracted by lysis of cells in 20 mM Tris-HCl, pH 7.5, 10% glycerol, 1% Triton X-100. The amount of cell bound radioactivity was determined in a gamma-counter. A standard curve for the binding of ^125I-labeled PDGF BB homodimers to PAE-1 cells expressing PDGF alpha-receptor is shown in FIG. 18.

PDGFR-α = PDGFR-α activation in cultured hSMC and NIH-3T3 cells (immunoprecipitation, pTyr blot); type: cell-based; details: treated cultured hSMC and NIH-3T3 fibroblast cells
Method: RNase protection analysis (RPA) was performed according to the manufacturer's protocol (Ambion) to investigate gene expression at mRNA level. Riboprobes were prepared using RNA polymerase (Promega) and ^32P-UTP (Amersham). Mouse β-actin cDNA (250 bp, Ambion) was used as an internal control. For Western blot assay, subconfluent cells were rinsed with cold PBS supplemented with 5 µg/ml of antiprotease cocktail, lysed in RIPA buffer and analyzed on 10% acrylamide SDS PAGE in reducing condition. Two antibodies to PDGFR-α (rabbit polyclonal antibody, dilution: 1/500, Santa Cruz, sc431; and monoclonal peroxidase-labeled anti-rabbit antibody, dilution: 1/2500, Sigma, A-2074) were used for PDGFR-α protein detection. Membranes were developed using the Supersignal System (Pierce). […] The precipitants were analysed on SDS-PAGE, and immunoblotted using a monoclonal anti-phosphotyrosine antibody (Santa Cruz).
The mitogenic and chemotactic effect of PDGF-CC was then tested on SMCs and perivascular fibroblast cells, and the effect of PDGF-CC was compared to that of VEGF and PDGF-AA in both cultured cells and the aortic ring assay (Blacher et al., Angiogenesis, 2001 4:133-42). […] In the aortic ring assay, we quantified the growth and emigration of perivascular fibroblasts from the intact vessel using computer-assisted image analysis after treatment with VEGF and different PDGFs at different concentrations. […]

PDGF alpha receptors = PDGF alpha receptors (Homo sapiens, UniProt P16234); experiment: PDGF alpha-receptor phosphorylation in PAE cells; type: cell-based; parameters: expressed in transfected cells; details: 100 ng/ml
Method: To test if PDGF-C causes increased phosphorylation of the PDGF alpha-receptor, full length and truncated PDGF-C were tested for their capacity to bind to the PDGF alpha-receptor and stimulate increased phosphorylation. Serum-starved porcine aortic endothelial (PAE) cells stably expressing the human PDGF alpha-receptor were incubated on ice for 90 minutes with PBS supplemented with 1 mg/ml BSA and 10 ng/ml of PDGF-AA, 100 ng/ml of full length human PDGF-CC homodimers (flPDGF-CC), 100 ng/ml of truncated PDGF-CC homodimers (cPDGF-CC), or a mixture of 10 ng/ml of PDGF-AA and 100 ng/ml of truncated PDGF-CC. Full length and truncated PDGF-CC homodimers were produced as described above. Sixty minutes after the addition of the polypeptides, the cells were lysed in lysis buffer (20 mM tris-HCl, pH 7.5, 0.5% Triton X-100, 0.5% deoxycholic acid, 10 mM EDTA, 1 mM orthovanadate, 1 mM PMSF 1% Trasylol). […] Bound antibodies were detected using enhanced chemiluminescence (ECL, Amersham Inc). The filters were then stripped and reprobed with the PDGF alpha-receptor rabbit antisera, and the amount of receptors was determined by incubation with horseradish peroxidase-conjugated anti-rabbit antibodies. Bound antibodies were detected using enhanced chemiluminescence (ECL, Amersham Inc). […]

[1] = test system: human foreskin fibroblasts; experiment: Mitogenicity for fibroblasts ([3H]thymidine incorporation); type: cell-based; details: 3, 10 or 30 ng/ml, 24 hours
Method: The assay was performed essentially as described in Mori et al., J. Biol. Chem., 1991 266:21158-21164. Serum starved human foreskin fibroblasts were incubated for 24 hours with 1 ml of serum-free medium supplemented with 1 mg/ml BSA and 3 ng/ml, 10 ng/ml or 30 ng/ml of full length PDGF-CC (flPDGF-CC), truncated PDGF-CC (cPDGF-CC) or PDGF-AA in the presence of […] [3H]thymidine. After trichloroacetic acid (TCA) precipitation, the incorporation of [3H]thymidine into DNA was determined using a beta-counter. […] PDGF-AA is included in the experiment as a control.

PDGF beta receptors, sequence (P09619 33-1106): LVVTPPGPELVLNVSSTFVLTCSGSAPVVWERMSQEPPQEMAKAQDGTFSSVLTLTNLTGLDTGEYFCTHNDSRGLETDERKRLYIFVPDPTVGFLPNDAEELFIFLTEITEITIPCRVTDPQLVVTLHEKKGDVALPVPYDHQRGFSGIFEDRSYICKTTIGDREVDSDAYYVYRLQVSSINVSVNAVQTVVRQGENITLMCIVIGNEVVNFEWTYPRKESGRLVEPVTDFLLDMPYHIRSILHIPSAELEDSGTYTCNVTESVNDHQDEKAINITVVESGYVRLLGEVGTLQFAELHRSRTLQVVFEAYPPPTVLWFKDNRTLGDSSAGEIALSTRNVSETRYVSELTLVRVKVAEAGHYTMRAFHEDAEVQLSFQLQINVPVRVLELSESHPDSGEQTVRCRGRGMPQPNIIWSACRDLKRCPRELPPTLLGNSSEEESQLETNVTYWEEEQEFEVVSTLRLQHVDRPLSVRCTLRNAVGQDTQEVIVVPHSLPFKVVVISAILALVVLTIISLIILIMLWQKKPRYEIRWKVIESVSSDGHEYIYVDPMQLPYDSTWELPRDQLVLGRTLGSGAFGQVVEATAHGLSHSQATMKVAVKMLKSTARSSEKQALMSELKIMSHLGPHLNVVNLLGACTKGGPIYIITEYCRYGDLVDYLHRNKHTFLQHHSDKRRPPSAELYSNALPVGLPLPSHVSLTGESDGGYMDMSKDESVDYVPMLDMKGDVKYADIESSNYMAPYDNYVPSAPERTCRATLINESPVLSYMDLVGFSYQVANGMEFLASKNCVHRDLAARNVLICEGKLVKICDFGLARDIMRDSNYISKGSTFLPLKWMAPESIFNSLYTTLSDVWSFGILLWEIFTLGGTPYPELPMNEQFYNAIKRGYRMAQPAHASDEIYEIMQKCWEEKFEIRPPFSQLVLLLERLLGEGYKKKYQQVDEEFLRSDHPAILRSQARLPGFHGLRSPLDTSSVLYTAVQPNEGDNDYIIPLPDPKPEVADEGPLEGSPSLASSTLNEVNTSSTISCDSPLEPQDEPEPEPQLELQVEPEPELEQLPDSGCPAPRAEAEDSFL
PDGF alpha receptors, sequence (P16234 24-1089): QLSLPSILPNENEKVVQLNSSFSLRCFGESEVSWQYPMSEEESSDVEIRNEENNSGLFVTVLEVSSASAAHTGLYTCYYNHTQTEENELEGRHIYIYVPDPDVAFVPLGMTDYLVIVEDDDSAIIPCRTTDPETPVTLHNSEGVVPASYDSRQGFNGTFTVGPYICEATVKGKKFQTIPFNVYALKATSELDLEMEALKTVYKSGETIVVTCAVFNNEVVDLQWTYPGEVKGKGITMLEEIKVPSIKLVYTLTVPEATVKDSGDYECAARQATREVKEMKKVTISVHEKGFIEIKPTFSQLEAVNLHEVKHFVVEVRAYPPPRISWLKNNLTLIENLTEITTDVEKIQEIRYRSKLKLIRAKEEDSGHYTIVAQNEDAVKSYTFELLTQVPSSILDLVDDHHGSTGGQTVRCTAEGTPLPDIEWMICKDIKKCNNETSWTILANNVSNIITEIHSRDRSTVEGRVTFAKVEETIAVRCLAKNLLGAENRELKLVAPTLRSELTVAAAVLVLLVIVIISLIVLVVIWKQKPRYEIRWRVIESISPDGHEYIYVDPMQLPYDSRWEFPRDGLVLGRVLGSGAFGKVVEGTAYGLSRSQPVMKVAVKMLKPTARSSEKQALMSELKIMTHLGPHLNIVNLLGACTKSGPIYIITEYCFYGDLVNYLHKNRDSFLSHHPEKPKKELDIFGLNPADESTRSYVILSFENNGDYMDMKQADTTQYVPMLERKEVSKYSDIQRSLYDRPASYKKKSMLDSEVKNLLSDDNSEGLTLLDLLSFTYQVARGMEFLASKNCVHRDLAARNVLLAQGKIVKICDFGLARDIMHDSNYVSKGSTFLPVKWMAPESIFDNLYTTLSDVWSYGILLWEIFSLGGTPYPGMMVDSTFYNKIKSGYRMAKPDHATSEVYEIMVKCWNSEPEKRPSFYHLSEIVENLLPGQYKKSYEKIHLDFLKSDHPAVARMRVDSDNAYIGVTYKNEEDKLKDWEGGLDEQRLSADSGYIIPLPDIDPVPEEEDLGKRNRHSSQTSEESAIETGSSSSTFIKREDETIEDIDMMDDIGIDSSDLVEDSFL

B1: PDGF-CC: recombinant human PDGF-CC core domain homodimer, residues 230-345 of full-length PDGF-C (SEQ ID NO:40), produced in baculovirus infected insect cells (protein)
chain: GRKSRVVDLNLLTEEVRLYSCTPRNFSVSIREELKRTDTIFWPGCLLVKRCGGNCACCLHNCNECQCVPSKVTKKYHEVLQLRPKTGVRGLHKSLTDVALEHHEECDCVCRGSTGG
modifications: homodimer; PDGF-C core domain
PDGF beta receptors
  competition for binding to the PDGF beta-receptor: failed to compete
PDGFR-α
  PDGFR-α activation (pTyr): highly activated
PDGF alpha receptors
  PDGF alpha-receptor tyrosine phosphorylation: efficiently induced
[1]
  mitogenic activity on fibroblasts: potent mitogen
